The nature of the data set: immunofluorescence confocal microscopy, HEK293. Particulars: glycan lost; control: wt hENT1 (HA- or 3xFLAG-tagged).

B1: human equilibrative nucleoside transporter 1 (hENT1): N48Q (protein)
parent chain: MTTSHQPQDRYKAVWLIFFMLGLGTLLPWNFFMTATQYFTNRLDMSQNVSLVTAELSKDAQASAAPAAPLPERNSLSAIFNNVMTLCAMLPLLLFTYLNSFLHQRIPQSVRILGSLVAILLVFLITAILVKVQLDALPFFVITMIKIVLINSFGAILQGSLFGLAGLLPASYTAPIMSGQGLAGFFASVAMICAIASGSELSESAFGYFITACAVIILTIICYLGLPRLEFYRYYQQLKLEGPGEQETKLDLISKGEEPRAGKEESGVSVSNSQPTNESHSIKAILKNISVLAFSVCFIFTITIGMFPAVTVEVKSSIAGSSTWERYFIPVSCFLTFNIFDWLGRSLTAVFMWPGKDSRWLPSLVLARLVFVPLLLLCNIKPRRYLTVVFEHDAWFIFFMAAFAFSNGYLASLCMCFGPKKVKPAEAETAGAIMAFFLCLGLALGAVFSFLFRAIV
B1: the localisation_or_trafficking entry is recorded as “decreases”.

The values above are taken from article PMC5006311.
